Laboratory results: article PMC11291478, “Molecular and structural basis of an ATPase-nuclease dual-enzyme anti-phage defense complex” (Cell Research, 2024)
Where “and” joins values, the source holds several entries; their conditions need not be identical. Identical values can stand only once. Blank lines part the entries; values can stand above or below the compound they belong to.

Legend:
[1] = molecular target: T1, DUF4297–HerA complex (Escherichia coli, UniProt A0ABF7PQ56); test: cryo-EM structure; assay type: binding; settings: with 59-bp dsDNA, 1 mM AMPPNP, 5 mM MgCl2; site at interface of RecA-like domains of adjacent HerA subunits; states 1 and 2
T1 construct: gene CG692_10950; co-expressed in E. coli BL21(DE3) from pET28a, His tag at N-terminus of DUF4297; about 1 MDa complex of 12 DUF4297 and 6 HerA; with DUF4297 domain-containing protein (dsDNA endonuclease Cap4-like domain-containing anti-phage protein)
T1 sequence (A0ABF7PQ56 1-571): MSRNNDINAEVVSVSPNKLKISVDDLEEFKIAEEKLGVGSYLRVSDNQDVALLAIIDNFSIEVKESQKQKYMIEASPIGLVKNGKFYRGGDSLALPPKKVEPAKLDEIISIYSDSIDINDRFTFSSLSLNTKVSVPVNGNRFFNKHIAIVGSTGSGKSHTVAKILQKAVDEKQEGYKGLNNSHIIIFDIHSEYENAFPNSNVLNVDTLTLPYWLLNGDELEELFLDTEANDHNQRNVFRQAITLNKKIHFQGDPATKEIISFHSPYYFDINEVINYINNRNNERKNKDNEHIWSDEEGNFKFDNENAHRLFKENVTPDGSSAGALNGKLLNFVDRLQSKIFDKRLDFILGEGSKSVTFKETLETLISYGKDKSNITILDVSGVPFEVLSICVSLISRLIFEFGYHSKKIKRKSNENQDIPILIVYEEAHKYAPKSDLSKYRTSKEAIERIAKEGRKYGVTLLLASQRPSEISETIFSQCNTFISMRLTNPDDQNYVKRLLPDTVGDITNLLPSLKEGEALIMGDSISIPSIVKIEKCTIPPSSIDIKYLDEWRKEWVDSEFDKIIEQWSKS
T1 sequence (A0ABF7PQ57 1-394 partner): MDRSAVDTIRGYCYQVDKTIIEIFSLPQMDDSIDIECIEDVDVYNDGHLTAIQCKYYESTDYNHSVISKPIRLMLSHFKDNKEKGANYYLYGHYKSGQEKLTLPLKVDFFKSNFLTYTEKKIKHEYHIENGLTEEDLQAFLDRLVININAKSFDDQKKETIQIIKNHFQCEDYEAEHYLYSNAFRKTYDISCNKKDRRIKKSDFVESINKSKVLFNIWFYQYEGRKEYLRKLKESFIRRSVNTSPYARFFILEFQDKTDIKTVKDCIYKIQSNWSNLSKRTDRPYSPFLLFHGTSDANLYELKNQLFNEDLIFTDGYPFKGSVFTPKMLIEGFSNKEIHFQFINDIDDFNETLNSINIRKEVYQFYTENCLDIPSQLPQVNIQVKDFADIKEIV

[2] = molecular target: T1, DUF4297–HerA complex; test: phosphate release, modified Baginski method; assay type: biochemical; settings: 5 nM complex, 20 mM Tris-HCl pH 8.0, 50 mM NaCl, 5 mM MgCl2, 5 mM DTT, 37 °C
[3] = molecular target: DUF4297; test: AUC; sedimentation velocity, 55,000 rpm, 4 °C, ~1 mg/mL, 20 mM Tris-HCl pH 8.0, 500 mM NaCl
[4] = molecular target: DUF4297
[5] = molecular target: HerA; test: cryo-EM structure; HerA alone, ~1.0 mg/mL, 3.14 Å
[6] = molecular target: DUF4297; test: cryo-EM structure; co-expressed and purified DUF4297–HerA complex without nucleotide or DNA, ~1.0 mg/mL, C2 symmetry imposed, 2.87 Å
[7] = molecular target: HerA; test: as above
[8] = molecular target: HerA; test: cryo-EM structure; purified DUF4297–HerA complex with 1 mM AMPPNP, 5 mM MgCl2 and 59-bp dsDNA (1:1.2); state 1 at 2.73 Å and state 2 at 2.92 Å

Compound: Nc1ncnc2c1ncn2[C@@H]1O[C@H](COP(=O)(O)OP(=O)(O)NP(=O)(O)O)[C@@H](O)[C@H]1O [AMPPNP]
cryo-EM structure [1]: three DNA-engaged subunits A–C bind ATP (AMPPNP in the structure)

Compound: Nc1ncnc2c1ncn2[C@@H]1O[C@H](COP(=O)(O)OP(=O)(O)OP(=O)(O)O)[C@@H](O)[C@H]1O [ATP]
phosphate release, modified Baginski method [2]: the DUF4297–HerA complex exhibits a high turnover rate under the same testing condition

stoichiometry N [3]: 2
Compound: DUF4297 (enzyme)

fold decrease in dsDNA nuclease activity of DUF4297 alone against the DUF4297–HerA complex [4]: 300 fold
stoichiometry N [5]: 6 and 5
stoichiometry N (DUF4297 per HerA) [6]: 2
stoichiometry N [7]: 6
stoichiometry N [8]: 6
Compound: HerA (enzyme)
